Here are results for one molecule from patent publication US5856148A, “Materials and methods for biosynthesis of serine and serine-related products” (priority 1991, dated 1999).

The series has as its system 3-phosphoglycerate dehydrogenase (PGD). Briefly: assay of PGD activity (relative catalytic activity). In kind it is biochemical, E. coli. The text has this:
While not critical to the invention, the assay of PGD activity is generally necessary in order to establish the degree of serine sensitivity of the altered enzyme. As is well known in the art, enzyme activity is a function of the total number of enzyme molecules and the catalytic activity of each molecule. Thus, in comparing the catalytic activity of PGD feedback variants, steps must be taken to adequately control for the relative number of PGD molecules for samples in which relative catalytic activity is to be compared. There are a number of ways in which this may be accomplished. However, since it is difficult to adequately establish the level of gene expression in cells transformed with truncated serA genes (due to decreased viability), the most suitable way to compare PGD activity produced from various constructs and the wild type is to chromosomally integrate the altered serA gene containing standard regulatory elements in a single copy, followed by harvesting the transformants and determination of the relative catalytic activity as compared to PGD from wild type cells.
Any method suitable for the measurement of PGD activity may be employed. PGD activity may be measured through detection of either the forward or the reverse reaction by the method of John C. McKitrick and Lewis I. Pizer, J. Bacteriol., 141:235-245 (1980). […]

B1: WT: wild-type E. coli 3-phosphoglycerate dehydrogenase (serA), C-terminal sequence SEQ ID NO: 2 (protein, UniProt P0A9T0 2-410, looked up)
D-3-phosphoglycerate …: AKVSLEKDKIKFLLVEGVHQKALESLRAAGYTNIEFHKGALDDEQLKESIRDAHFIGLRSRTHLTEDVINAAEKLVAIGCFCIGTNQVDLDAAAKRGIPVFNAPFSNTRSVAELVIGELLLLLRGVPEANAKAHRGVWNKLAAGSFEARGKKLGIIGYGHIGTQLGILAESLGMYVYFYDIENKLPLGNATQVQHLSDLLNMSDVVSLHVPENPSTKNMMGAKEISLMKPGSLLINASRGTVVDIPALCDALASKHLAGAAIDVFPTEPATNSDPFTSPLCEFDNVLLTPHIGGSTQEAQENIGLEVAGKLIKYSDNGSTLSAVNFPEVSLPLHGGRRLMHIHENRPGVLTALNKIFAEQGVNIAAQYLQTSAQMGYVVIDIEADEDVAEKALQAMKAIPGTIRARLLY
For the molecule B1, the “Units (relative catalytic activity)” value (Table 1, following chromosomal integration of the construct) is 0.05 Units. Under “Table 1A, wildtype and mutated serA alleles”, this molecule came in with a Units of 0.05 Units.
